# Test results published in the DeepSol protein solubility set.
# Assay: soluble on expression in E. coli; label from the status in PepcDB or PDB records
row,Sequence,soluble on expression in E. coli
1,MAEHRGGSGNFAEDREKASDAGRKGGQHSGGNFKNDPQRASEAGKKGGQQSGGNKSGKS,soluble
2,MAEIYEEGDESVDVNKESEVKTELGKGGGDENVLQFLDSLDGYLTLMDSVNSKLREGWFDLASARHSMGTLRINSTLLDLKYHPASSTLQVTDQDVESLGSVPHFALSKWASKGGSRKGKDFSTDTDSEIGSPLSPQLRHRGVSEEKPSAKDETVLAADEEIKKERAKSLSVFGGLVSPKLRGAQQSFETALETLVEIANMRASMISAFERITEK,soluble
3,MAEKFDCHYCRDPLQGKKYVQKDGHHCCLKCFDKFCANTCVECRKPIGADSKEVHYKNRFWHDTCFRCAKCLHPLANETFVAKDNKILCNKCTTREDSPKCKGCFKAIVAGDQNVEYKGTVWHKDCFTCSNCKQVIGTGSFFPKGEDFYCVTCHETKFAEHCVKCNKAITSGGITYQDQPWHADCFVCVTCSKKLAGQRFTAVEDQYYCVDCYKNFVAKKCAGCKNPITGFGKGSSVVAYEGQSWHDYCFHCKKCSVNLANKRFVFHQEQVYCPDCAKKL,soluble
4,MAENKKKNDDMATVEFESSEEVSIIPTFDKMGLREDLLRGIYAYGFEKPSAIQQRAIPAILKARDVIAQAQSGTGKTATFSISVLQSLDTQVRETQALILSPTRELAVQIQKVVLALGDYMNVQCHACIGGTNLGEDIRKLDYGQHVVSGTPGRVFDMIRRRNLRTRAIKLLVLDEADEMLNKGFKEQLYDIYRYLPPGAQVVLLSATLPHEILEMTSKFMTDPIRILVKRDELTLEGIKQFFVAVDREEWKFDTLIDLYDTLTITQAVLFCNTRRKVDWLTDKMKEANFTVSSMHGDMEQKDRDEVMKEFRAGTTRVLISTDVWARGLDVPQVSLVINYDLPNNRELYIHRIGRSGRFGRKGVAINFVKQDDVRILRDIEQYYSTQIDEMPMNIADII,not soluble
5,MAEQQPSKEEKKEDKKDEKEEELPAPSVQQSIRQLPKIQITDDDKGEQLPECTEGEWDASDEPFSAELLNVKNAPNKVSVFSGPYRSKETIEKIKKFRAAMPPVIPIIDERPDKLAQMMSRIFSEIIDGRDLSKIKVFFFIK,not soluble
6,MAESVFAERIVQNLLDTDFYKLTMMQAVLHNYPNAEVEWEFRCRNAEDLRPYLAEIRYQIERLAEVEVTADQLAFLERIPFMKPDFIRFLSLFRFNLRYVHTGIEDGQLAIRLRGPWLHVILFEVPLLAIVSEVRNRYRYREVVLEQVGEQLYRKLDWLSAQASSEELAEFQVADFGTRRRFSYRTQEEVVHILKRDFPGRFVGTSNVHLAREYDLKPIGTMAHEWLMAHQQLGPRLVDSQQAALDCWVREYRGQLGIALTDCITMDAFLDDFDLYFAKLFDGLRHDSGDPLAWAEKAIAHYRRLGIDPLSKTLVFSDGLDMPKALQLFRALRGKINVSFGIGTNLTCDIPGVEPMNIVLKMTACNGHPVAKISDAPGKTQCRDENFVAYLRHVFNVPA,not soluble
7,MAETFKIRKLEISDKRKGFIELLGQLTVTGSVTDEEFDRRFEEIRSYGDDHVICVIEEETSGKIAATGSVMIEKKFLRNCGKAGHIEDVVVDSRFRGKQLGKKVVEFLMDHCKSMGCYKVILDCSVENKVFYEKCGMSNKSIQMSKYFD,soluble
8,MAETTPKVKGHVVILPYPVQGHLNPMVQFAKRLVSKNVKVTIATTTYTASSITTPSLSVEPISDGFDFIPIGIPGFSVDTYSESFKLNGSETLTLLIEKFKSTDSPIDCLIYDSFLPWGLEVARSMELSAASFFTNNLTVCSVLRKFSNGDFPLPADPNSAPFRIRGLPSLSYDELPSFVGRHWLTHPEHGRVLLNQFPNHENADWLFVNGFEGLEETQDCENGESDAMKATLIGPMIPSAYLDDRMEDDKDYGASLLKPISKECMEWLETKQAQSVAFVSFGSFGILFEKQLAEVAIALQESDLNFLWVIKEAHIAKLPEGFVESTKDRALLVSWCNQLEVLAHESIGCFLTHCGWNSTLEGLSLGVPMVGVPQWSDQMNDAKFVEEVWKVGYRAKEEAGEVIVKSEELVRCLKGVMEGESSVKIRESSKKWKDLAVKAMSEGGSSDRSINEFIESLGK,soluble
9,MAEVKKKIKPGAIEAHAEELAIVVHYEVQEVSTQSDGSQKVISKEPGEKKISVKSLSEKTNVPLLATEIIEKCKLIHPSKAGQVEELLYQLQSRGGGGGADAKAKPAAKPAAASPAKSAAAAPPPPSNVAQSPQKPGQPPSTPSKKPPAAAGAPAPMLNGKPAPKAQSRLDAEAEERADLQARRQAQAMQIFKMQQKQYEQAYMNKLDEYIEGLYEEEMPKKVRATGMIAQLFRNTENFEVLLSHETLMQTLSRVLREDGKRSIDLCTNIISVFFSVSNFTQFHGLIMQNQVGALTMDLIDLEIKRTEHRASEENISPAMVAQKALEASQGQVTLSEREKKLLALIQKQDRLLYIAFYMLLNLSEDIEVERKMKKKNIVVYLVKMLERSNVELLILATTFLKKLSIYKENKETMSSCKIVEKLMKFVPVLNDVLLMSVLRLLHNLSFDHSLRDDMVKHGLIPKAVELMMVPRFQPVVLGLLYHISMEDKYKSLFTFTDCLNKMYDMLMRVQADLRNTPELIALAVNLTQNPRNAETMCEGDRFDKMMRRAFQTCDELMFKVLRNLSQQEGINIKRRFGPYVEQLVTLLRAPDITAELFVEVLGCLANLYIPEFDFLGLVRKHDLLTFLATYAQPGAVDDDILLEVVMFVGVLCNEGTAPLIVSSGLVTTLFQLMGDKKEDDEFVLQIAFTFHKFLLHDETRASLLTNTQQVVFYLVDLLQDKNKEVRRVADQCLDIIMDTDEEWAVQIRNLKFESFNQEWLDVVSQPAGGMAAHAGRQRNGYDDETEVDYSGGDGYYNIGDQRLVADFDDLGTNGGTWGPGDEGLQGGYEGNYDGYDEEELRQGYAM,not soluble
10,MAEYKFYYFNGRGLGDVSRQLFALSGTKYEDIRIEHADWPAQKPKMPFGQMPVLELSSGLQIPQSMAIARYLAKKFGYAGKTDEEAALADALIDQFKDFYAEIKPYYYAKIGVLQNDTEEEKKKTLIPARDKFLTIIGKFLKLSISGFLFSGGLTYADLMICDNMRTLIAWWPEYLNEYPDIKAWYQKVDGIPEIRKHLESSPDKGF,soluble
11,MAFEFKLPDIGEGIHEGEIVKWFIKPGDEVNEDDVLLEVQNDKAVVEIPSPVKGKVLEVLVEEGTVAVVGDTLIKFDAPGYENLKFKGDDHDEAPKAEATPAATAEVVNERVIAMPSVRKYARENGVDIHKVAGSGKNGRIVKADIDAFANGGQAVAATEAPAAVEATPAAAKEEAPKAQPIPAGEYPETREKMSGIRKAIAKAMVNSKHTAPHVTLMDEVDVTELVAHRKKFKAVAADKGIKLTYLPYVVKALTSALREYPMLNTSLDDASQEVVHKHYFNIGIAADTDKGLLVPVVKDTDRKSIFTISNEINDLAGKAREGRLAPAEMKGASCTITNIGSAGGQWFTPVINHPEVAILGIGRIAEKPVVKNGEIVAAPVLALSLSFDHRLIDGATAQKALNQIKRLLNDPQLLVMEA,not soluble
12,MAFKDTFNKMISYFDTDEVNEVEEDVAASTDNVIPRSQQSVRASSHPKQEPRNNHVQQDHQARSQEQTRSQMHPKHGTSERYYQQSQPKEGHEMVDRRKRMSTSGIANRREQYQQSTCSDQTTIALKYPRKYEDAQEIVDLLIVNECVLIDFQFMLDAQARRCLDFIDGASKVLYGSLQKVGSSMYLLAPSNVSVNIEEMTIPHTTQDIGFDFDMKRRLEHHHHHH,not soluble
13,MAFKSDVIFEEIKERIATDKEMVKKVGTSFRMTIAGADGKTKVWTIDAKSDTPYVGDDSSRPVEIEINIKDSDFIAIAAGKMKPDQAFMQGKMKLKGNIAKAMKLRTILDPKMLKAKL,soluble
14,MAFLDNPTIILAHIRQSHVTSDDTGMCEMVLIDHDVDLEKIHPPSMPGDSGSEIQGSNGETQGYVYAQSVDITSSWDFGIRRRSNTAQRLERLRKERQNQIKCKNIQWKERNSKQSAQELKSLFEKKSLKEKPPISGKQSILSVRLEQCPLQLNNPFNEYSKFDGKGHVGTTATKKIDVYLPLHSSQDRLLPMTVVTMASARVQDLIGLICWQYTSEGREPKLNDNVSAYCLHIAEDDGEVDTDFPPLDSNEPIHKFGFSTLALVEKYSSPGLTSKESLFVRINAAHGFSLIQVDNTKVTMKEILLKAVKRRKGSQKVSGSRADGVFEEDSQIDIATVQDMLSSHHYKSFKVSMIHRLRFTTDVQLGISGDKVEIDPVTNQKASTKFWIKQKPISIDSDLLCACDLAEEKSPSHAIFKLTYLSNHDYKHLYFESDAATVNEIVLKVNYILESRASTARADYFAQKQRKLNRRTSFSFQKEKKSGQQ,soluble
